Patent US20110245153A1

Legend:
[1] = target: staphylococcal enterotoxin B (SEB), Staphylococcus aureus superantigen peptide; experiment: fusion: Aga2 (yeast display)
[2] = target: toxic shock syndrome toxin-1 (TSST-1), Staphylococcus aureus superantigen peptide; experiment: soluble, other

Substance	Kd [1] [µM]	Kd [2] [µM]
EGIGYITK	0.005	–
wild type hVβ2.1	–	2.3
